# Where a chain is given by its changes, count along the chain named.
# B1: CAR22-65 (scFv)
# scFv: EVQLQQSGPGLVKPSQTLSLTCAISGDSMLSNSDTWNWIRQSPSRGLEWLGRTYHRSTWYDDYASSVRGRVSINVDTSKNQYSLQLNAVTPEDTGVYYCARVRLQDGNSWSDAFDVWGQGTMVTVSSGGGGSGGGGSGGGGSQSALTQPASASGSPGQSVTISCTGTSSDVGGYNYVSWYQQHPGKAPKLMIYDVSNRPSGVSNRFSGSKSGNTASLTISGLQAEDEADYYCSSYTSSSTLYVFGTGTQLTVL
# notes: also called CD22-65
# B2: CAR22-64 (scFv)
# scFv: B1 scFv with S19P, M29V, S142P
# notes: also called CD22-64
# B3: CAR22-12 (scFv)
# scFv: B1 scFv with M29V, V102D
# notes: scFv domain of a CAR on T cells or JNL cells; also called CD22 CAR clone 12; hCD22-12
# B4: CAR22-62 (scFv)
# scFv: EVQLQQSGPGLVKPSQTLSLTCAISGDSVLSNSDTWNWIRQSPSRGLEWLGRTYHRSTWYDDYASSVRGRVSINVDTSKNQYSLQLNAVTPEDTGVYYCARDRLQDGNSWSDAFDVWGQGTMVTVSSGGGGSGGGGSGGGGSQSALTQPASVSGSPGQSITISCTGTSSDVGGYNYVSWYQQHPGKAPKLMIYDVSNRPSGVSNRFSGSKSGNTASLTISGLQAEDEADYYCSSYTSSSTLYVFGTGTKVTVLG
# notes: scFv domain of a CAR expressed on JNL cells; also called CD22-62
# B5: CAR22-60 (scFv)
# scFv: B4 scFv with G139S, I162F, V171I, D194E, S209T, V250L
# notes: scFv domain of a CAR expressed on JNL cells; also called CD22-60
# B6: CAR22-63 (scFv)
# scFv: B4 scFv with D194E, V243I
# notes: scFv domain of a CAR expressed on JNL cells; also called CD22-63
# B7: CAR22-61 (scFv)
# scFv: B4 scFv with E1Q, Q6E, G139S, D194E
# notes: scFv domain of a CAR expressed on JNL cells; also called CD22-61
# B8: CAR22-59 (scFv)
# scFv: EVQLQQSGPGLVKPSQTLSLTCAISGDSVLSNSDTWNWIRQSPSRGLEWLGRTYHRSTWYDDYASSVRGRVSINVDTSKNQYSLQLNAVTPEDTGVYYCARDRLQDGNSWSDAFDVWGQGTMVTVSSGGGGSGGGGSGGGGSQSALTQPASVSGSPGQSITISCTGSSSDIGGFNYVSWYQQHAGEAPKLMIYEVTNRPSGVSDRFSGSKSDNTASLTISGLQAEDEADYYCSSYASGSPLYVFGTGTKVTVLG
# notes: scFv domain of a CAR expressed on JNL cells; also called CD22-59
# B9: CAR 22-57 (scFv)
# scFv: EVQLQQSGPGLVKPSQTLSLTCAISGDSVSNNNAAWNWIRQSPSRGLEWLGRTYHRSTWYNDYVGSVKSRITINPDTSKNQFSLQLNSVTPEDTAVYYCARETDYGDYGAFDIWGQGTTVTVSSGGGGSGGGGSGGGGSQSALTQPASVSGSPGQSITISCTGSRNDIGAYESVSWYQQHPGNAPKLIIHGVNNRPSGVFDRFSVSQSGNTASLTISGLQAEDEADYYCSSHTTTSTLYVFGTGTKVTVLG
# notes: scFv domain of a CAR expressed on JNL cells; also called CD22-57
# B10: CAR22-53 (scFv)
# scFv: EVQLQQSGPGLVKPSQTLSLTCAISGDSVSSNSAAWNWIRQSPSRGLEWLGRTYYRSKWYSDYAVSVKSRITINPDTSKNQFSLQLNSVTPEDTAVYYCARDPYDFWSGYPDAFDIWGQGTMVTVSSGGGGSGGGGSGGGGSQSALTQPASVSGSPGQSITISCTGTSSDVGGYNYVSWYQQHPGKAPKVIISEVNNRPSGVSHRFSGSKSGNTASLTISGLQAEDEADYFCSSYTSGRTLYVFGTGSKVTVLG
# notes: scFv domain of a CAR on JNL cells or T cells; also called CD22-53; hCD22-53
# B11: CAR22-58 (scFv)
# scFv: EVQLQQSGPGLVNPSQTLSITCAISGDSVSSNSAAWNWIRQSPSRGLEWLGRTFYRSKWYNDYAVSVKGRITISPDTSKNQFSLQLNSVTPEDTAVYYCAGGDYYYGLDVWGQGTTVTVSSGGGGSGGGGSGGGGSQSALTQPASVSGSPGQSITISCTGSSSDVGGYNSVSWYQQHPGKAPKLMIYEVINRPSGVSHRFSGSKSGNTASLTISGLQAEDEADYYCSSYTSSSTYVFGTGTKVTVLG
# notes: scFv domain of a CAR expressed on JNL cells; also called CD22-58
# B12: CAR123-3 (scFv, V domains shown)
# VH: QVQLVQSGAEVKKPGASVKVSCKASGYIFTGYYIHWVRQAPGQGLEWMGWINPNSGGTNYAQKFQGRVTMTRDTSISTAYMELSGLRSDDPAVYYCARDMNILATVPFDIWGQGTLVTVSS
# VL: DIQLTQSPSSLSASVGDRVTITCRASQSISSYLNWYQQKPGKAPKLLIYAASSLQSGVPSRFSGSGSGTDFTLTVNSLQPEDFATYYCQQGDSVPLTFGGGTKVEIK
# B13: CAR123-4 (scFv, V domains shown)
# VH: QVQLQQSGAEVKKSGASVKVSCKASGYTFTDYYMHWLRQAPGQGLEWMGWINPNSGDTNYAQKFQGRVTLTRDTSISTVYMELSRLRSDDTAVYYCARDMNILATVPFDIWGQGTMVTVSS
# VL: B12 VL with L4M, V75I, N76S
# Biological target: T1, CD22-FL-Fc (UniProt P20273 20-687)
# T1 construct: domain: full-length with all 7 external domains; also called CD22 full length-Fc; CD22 full-length with all 7 external domains; not shown: Fc part not described
# Experiment: NFAT-luciferase activation of CAR JNL cells on plates coated with CD22 full length-Fc, CD22 D567-Fc or Fc only
# Description: (§1) Briefly the experiments were performed as follows. A lentiviral vector (pELPS) carrying a nucleic acid, encoding a CD22 CAR with a CD22-binding scFv domain was introduced by electroporation into a Jurkat T cell line modified to express luciferase under the control of an NFAT response element (JNL). The cells were cultured and allowed to express the CAR construct. The electroporated cells were applied to a plate coated with the target antigen (CD22). Detection of luciferase signal in the coated plate was indicative of binding activity of the CD22 CAR to its antigen, leading to activation of the T cells and expression of luciferase.
# CAR constructs containing these scFvs were tested for activity in an NFAT assay as described above. […] The bars in the figure represent, from left to right, CD22 full length-Fc; CD22 D567-Fc; and an Fc only negative control used for coating of the plates.
row,binding result,Binder
1,binds,B1
2,binds,B2

# Biological target: T1, CD22-FL-Fc
# Experiment: NFAT-luciferase activation of CAR JNL cells on plates coated with CD22-FL-Fc, CD22-D567-Fc or CD22-D67
# Description: as §1
# Three different target proteins (CD22-FL-Fc, CD22-D567-Fc, and CD22-D67) were used to coat the tissue culture plates; a negative control (Fc) was also included. A mesothelin binding CAR (Meso-G07) was used as a negative control. […] Domain mapping was performed on CD22 binding domains. Three different forms of antigens were used: CD22 full-length with all 7 external domains, Domain567 (in which domains 1-4 were deleted) and Domain67 (in which domains 1-5 were deleted).
row,binding result,Binder
1,binds,B3
2,binds,B4
3,binds,B5
4,binds,B6
5,binds,B7
6,binds,B8
7,binds,B9
8,binds,B10
9,binds,B11

# Biological target: CD123 on target cells (MOLM14, MOLM13, primary B-ALL blasts) (human), P26951
# Sequence (P26951 19-378): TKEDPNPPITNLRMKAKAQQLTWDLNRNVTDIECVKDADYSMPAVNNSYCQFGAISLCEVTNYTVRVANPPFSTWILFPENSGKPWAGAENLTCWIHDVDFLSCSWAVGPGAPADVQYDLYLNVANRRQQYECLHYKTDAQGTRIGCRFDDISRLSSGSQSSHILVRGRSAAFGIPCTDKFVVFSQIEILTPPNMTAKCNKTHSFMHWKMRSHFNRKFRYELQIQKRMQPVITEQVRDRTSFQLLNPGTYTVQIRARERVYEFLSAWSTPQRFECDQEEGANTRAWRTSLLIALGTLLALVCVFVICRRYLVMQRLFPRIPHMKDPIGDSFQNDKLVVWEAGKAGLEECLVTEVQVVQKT
# Experiment: cell-based or functional assay
row,"CD107a degranulation, 2-hr in vitro assay",Binder
1,80%,B12
2,80%,B13

# From US20160362472A1 (published 2016)
